Results on 12 substances are retold here after article PMC11074156.

ATF6 (activating transcription factor 6), endogenous, sequence (P18850 whole entry): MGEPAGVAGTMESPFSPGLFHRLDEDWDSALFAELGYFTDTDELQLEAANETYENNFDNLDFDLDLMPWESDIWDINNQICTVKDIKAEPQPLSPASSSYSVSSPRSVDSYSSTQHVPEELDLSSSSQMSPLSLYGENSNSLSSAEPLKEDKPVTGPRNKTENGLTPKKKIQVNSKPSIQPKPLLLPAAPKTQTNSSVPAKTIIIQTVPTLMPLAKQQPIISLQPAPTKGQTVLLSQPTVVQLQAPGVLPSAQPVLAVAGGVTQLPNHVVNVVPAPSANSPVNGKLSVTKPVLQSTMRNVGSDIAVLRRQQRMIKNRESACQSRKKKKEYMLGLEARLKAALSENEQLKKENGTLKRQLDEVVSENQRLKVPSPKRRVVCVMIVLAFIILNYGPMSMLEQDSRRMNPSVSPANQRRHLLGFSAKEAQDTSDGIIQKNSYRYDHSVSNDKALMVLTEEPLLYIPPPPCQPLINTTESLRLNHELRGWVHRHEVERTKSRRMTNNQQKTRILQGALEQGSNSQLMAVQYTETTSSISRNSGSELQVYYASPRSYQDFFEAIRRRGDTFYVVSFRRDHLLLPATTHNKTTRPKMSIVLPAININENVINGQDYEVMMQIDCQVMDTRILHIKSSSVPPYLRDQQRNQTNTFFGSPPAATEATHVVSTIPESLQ
EGFP-full length GRP78 (wild type), P11021 R470E, sequence (P11021 19-654 R470E): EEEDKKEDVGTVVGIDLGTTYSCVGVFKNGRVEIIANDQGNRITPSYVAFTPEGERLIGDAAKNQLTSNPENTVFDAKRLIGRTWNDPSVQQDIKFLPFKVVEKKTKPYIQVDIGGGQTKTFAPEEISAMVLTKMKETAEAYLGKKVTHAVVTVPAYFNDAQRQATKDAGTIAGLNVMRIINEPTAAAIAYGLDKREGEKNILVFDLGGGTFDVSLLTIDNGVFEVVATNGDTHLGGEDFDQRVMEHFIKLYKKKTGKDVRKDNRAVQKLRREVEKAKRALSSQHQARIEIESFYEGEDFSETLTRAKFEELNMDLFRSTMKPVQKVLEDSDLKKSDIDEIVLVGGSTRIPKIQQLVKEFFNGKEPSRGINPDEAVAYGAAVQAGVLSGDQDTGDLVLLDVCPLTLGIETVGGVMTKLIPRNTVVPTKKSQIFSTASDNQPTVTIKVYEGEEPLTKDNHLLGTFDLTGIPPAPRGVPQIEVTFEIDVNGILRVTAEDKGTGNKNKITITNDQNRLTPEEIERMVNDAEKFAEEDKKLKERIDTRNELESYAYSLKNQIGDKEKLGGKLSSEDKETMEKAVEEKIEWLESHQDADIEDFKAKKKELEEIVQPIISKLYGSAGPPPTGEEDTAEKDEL
EGFP-full length GRP78 (wild type), P11021 K585A, sequence (P11021 19-654 K585A): as the sequence (P11021 19-654 R470E) above, with E452R, K567A counted along it
EGFP-full length GRP78 (wild type), P11021 K621A, sequence (P11021 19-654 K621A): as the sequence (P11021 19-654 R470E) above, with E452R, K603A counted along it
EGFP-full length GRP78 (wild type), P11021 T518A, sequence (P11021 19-654 T518A): as the sequence (P11021 19-654 R470E) above, with E452R, T500A counted along it
EGFP-full length GRP78 (wild type), P11021 V429Q, sequence (P11021 19-654 V429Q): as the sequence (P11021 19-654 R470E) above, with V411Q, E452R counted along it
EGFP-full length GRP78 (wild type), P11021 R492E, sequence (P11021 19-654 R492E): as the sequence (P11021 19-654 R470E) above, with E452R, R474E counted along it

The target of one test is ZIKV E protein expressed from pcDNA3.1+_19CprME-Zika (with prM). Nature of the test: co-immunoprecipitation (GFP trap beads), western blot band quantitation. The following applies: HEK293T/17 cells, 48 h post transfection; parent: est. 1.0; read off a plot. (A western blot detects proteins with antibodies after separation by electrophoresis.)
With “EGFP-full length GRP78 (wild type) (from UniProt P11021) H477E”, the ratio to parent is 1.3.

For “EGFP-full length GRP78 (wild type) (from UniProt P11021) K585A”, the ratio to parent came out at 1. With “EGFP-full length GRP78 (wild type) (from UniProt P11021) K621A”, the ratio to parent came out at 0.72. With “EGFP-full length GRP78 (wild type) (from UniProt P11021) R492E”, the ratio to parent was determined as 0.47. Turning to “EGFP-full length GRP78 (wild type) (from UniProt P11021) T518A”, the ratio to parent is 0.42. In the case of “EGFP-full length GRP78 (wild type) (from UniProt P11021) V429Q”, the ratio to parent stood at 1.1.

The next test concerns the target ATF6 (activating transcription factor 6), endogenous (UniProt P18850). The test is described as above. The following applies: HEK293T/17 cells, 48 h post transfection; parent: est. 1.0; read off a plot.
For the substance “EGFP-full length GRP78 (wild type), P11021 K585A”, the ratio to parent worked out at 0.82.

With “EGFP-full length GRP78 (wild type), P11021 K621A”, the ratio to parent was 0.82. As for “EGFP-full length GRP78 (wild type), P11021 R470E”, the ratio to parent came out at 0.95.

Consider “EGFP-full length GRP78 (wild type), P11021 R492E”, for which the ratio to parent was determined as 0.28. For the substance “EGFP-full length GRP78 (wild type), P11021 T518A”, the ratio to parent was determined as 0.4.

“EGFP-full length GRP78 (wild type), P11021 V429Q”: the ratio to parent worked out at 0.98.
